Source: patent US20110183917A1 (UNIVERSITY OF MARYLAND BALTIMORE, published 2011)

Columns and labels:
[1] = target: T1, synMDMX (synthetic MDMX comprising amino acids 24-108 of the full length MDMX protein) (human, UniProt O15151 24-108); test: SPR competition, immobilized 15-29p53
T1 construct: range 24-108; A biotinylated form was the bait in the phage selections; also called MDM4; biotin-synMDMX
T1 sequence (looked up): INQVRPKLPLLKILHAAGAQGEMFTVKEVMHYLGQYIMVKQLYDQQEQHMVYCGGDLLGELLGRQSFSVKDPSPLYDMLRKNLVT

[2] = target: T2, synMDM2 (synthetic MDM2 comprising amino acids 25-109 of the full length MDM2 protein) (human, UniProt Q00987 25-109); test: phage display selection, peptide on M13 pIII, biotin-synMDM2 as bait
T2 construct: range 25-109; A biotinylated form (biotin-synMDM2) was the bait in the phage selections; also called biotin-synMDM2
T2 sequence (Q00987 25-109 limits assumed): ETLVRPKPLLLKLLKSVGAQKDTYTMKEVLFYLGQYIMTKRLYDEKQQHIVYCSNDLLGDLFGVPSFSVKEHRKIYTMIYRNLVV

[3] = target: T1, synMDMX (synthetic MDMX comprising …); test: phage display selection, peptide on M13 pIII, biotin-synMDMX as bait

CYSFDCLWKCLAMGFSSGKCINSKCKC (designed binder, also called L-Stoppin-1) [stoppin-1]
fold lower affinity than 15-29p53 [1]: ~4 fold

B1: L-PMI-2 (peptide)
peptide: DDWFQRVWSPLM
notes: Reported only as a phage clone: the 12-mer was fused through a GlyGlyGlySer spacer to the N-terminus of M13 pIII
binding result [2]: binds
binding result [3]: binds
